Experimental data taken from paper PMC4633990.

How the values were obtained:
[1] = target: HIV-1 Env on HIV-1 IIIb-infected CEM-NKr-CCR5 cells (CEM-IIIb) (HIV-1 IIIb) (UniProt P04578)
[2] = target: HIV-1 Env of strain AC10.29 (clade B) on pseudovirus AC10.29.SG3 (HIV-1 AC10.29 (clade B))
[3] = target: HIV-1 Env of strain ZM53.12 (clade C) on pseudovirus ZM53.12.SG3 (HIV-1 ZM53.12 (clade C))

Q: Which results are given for “VRC07-αCD3 bispecific immunomodulatory protein (bispecific antibody)”?
A: IFN-γ intracellular cytokine staining of human CD4 T cells co-cultured with HIV-infected CEM cells and 0.5 μg ml^−1 protein, relative to unstimulated CD4 T cells (1.4-fold in the absence of HIV-1) [1]: 9 fold; IC50 of neutralisation of Env-pseudotyped virus AC10.29.SG3 (clade B), TZM-bl target cells, luciferase [2]: 0.346 µg/mL; IC50 of neutralisation of Env-pseudotyped virus ZM53.12.SG3 (clade C), TZM-bl target cells, luciferase [3]: 0.24 µg/mL
